Source: patent publication US20200062804A1 (ADRX, published 2020)
Non-standard residues stand in square brackets, D forms with d. No end group written: not given here. hArg = N=C(N)NCCCC[C@H](N)C(=O)O

T1: Nat1 (LTIITLE) (also: TFA salt)
T1 peptide: LTIITLE

B1: qiryfrr (peptide)
peptide: [dQ][dI][dR][dY][dF][dR][dR]
B2: YRLRYVR (peptide)
peptide: YRLRYVR
B3: fwrwarr (peptide)
peptide: [dF][dW][dR][dW][dA][dR][dR]
B4: LYIRYTH (peptide)
peptide: LYIRYTH
B5: qfrmhhr (peptide)
peptide: [dQ][dF][dR][dM][dH][dH][dR]
B6: yqyyfwr (peptide)
peptide: [dY][dQ][dY][dY][dF][dW][dR]
B7: LRIRHYT (peptide)
peptide: LRIRHYT
B8: FRIRRYR (peptide)
peptide: FRIRRYR
B9: swwfrhr (peptide)
peptide: [dS][dW][dW][dF][dR][dH][dR]
B10: Ile-Arg-Ile-homoArg-Arg-Tyr-Arg (peptide)
peptide: IRI[hArg]RYR
B11: yqwryrr (peptide)
peptide: [dY][dQ][dW][dR][dY][dR][dR]
B12: hlryhrk (peptide)
peptide: [dH][dL][dR][dY][dH][dR][dK]
B13: LYIRLTH (peptide)
peptide: LYIRLTH
B14: lwrwyrr (peptide)
peptide: [dL][dW][dR][dW][dY][dR][dR]
B15: LTIRLWH (peptide)
peptide: LTIRLWH
B16: rwrilqk (peptide)
peptide: [dR][dW][dR][dI][dL][dQ][dK]
B17: LYIRTLH (peptide)
peptide: LYIRTLH
B18: WTIRYYK (peptide)
peptide: WTIRYYK
B19: IRIRRY (peptide)
peptide: IRIRRY
B20: rihyfrr (peptide)
peptide: [dR][dI][dH][dY][dF][dR][dR]
B21: LFIKYHR (peptide)
peptide: LFIKYHR
B22: rqhyrwr (peptide)
peptide: [dR][dQ][dH][dY][dR][dW][dR]
B23: TRIYRYK (peptide)
peptide: TRIYRYK
B24: rlhwkhh (peptide)
peptide: [dR][dL][dH][dW][dK][dH][dH]
B25: rwmywqr (peptide)
peptide: [dR][dW][dM][dY][dW][dQ][dR]
B26: LAIKYHR (peptide)
peptide: LAIKYHR

Target: T1, Nat1 (LTIITLE)
Assay: cell-based or functional assay

| Binder | IC50, Thiofiavin T aggregation assay |
| --- | --- |
| B1 | 167 nM |
| B2 | 175 nM |
| B3 | 176 nM |
| B4 | 180 nM |
| B5 | 181 nM |
| B6 | 181 nM |
| B7 | 182 nM |
| B8 | 185 nM |
| B9 | 187 nM |
| B10 | 40 nM |
| B11 | 191 nM |
| B12 | 192 nM |
| B13 | 192 nM |
| B14 | 194 nM |
| B15 | 198 nM |
| B16 | 199 nM |
| B17 | 203 nM |
| B18 | 203 nM |
| B19 | 205 nM |
| B20 | 43 nM |
| B21 | 210 nM |
| B22 | 210 nM |
| B23 | 213 nM |
| B24 | 215 nM |
| B25 | 216 nM |
| B26 | 220 nM |
